Reference: US10556936B2, “Immunogenic proteins and fragments thereof from allergenic mites” (ALK-ABELLÓ A/S, priority 2016, dated 2020)

Tests used:
Type in all cases: cell-based, human
[1] = system: basophils in whole blood from HDM allergic donors; assay: Basophil Activation Test (BAT); details: blood from HDM allergic individuals (n=14)
Procedure, shortened: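 Basophil activation was read by flow cytometry as increased surface activation markers. The stimulus was a 1 h exposure of blood from 14 HDM-allergic donors to test proteins or major mite allergens at graded concentrations (e.g. 1–1000 ng/ml).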

[2] = system: T cell lines obtained from HDM allergic individuals and non-allergics; assay: In vitro T cell proliferation test in T cell lines (Example 3); details: 0.5 or 2 ug/ml, 72 h; for % responders of in-vitro T cell proliferation test, Allergic: T cell lines from HDM allergic individuals (n=30); for % responders of in-vitro T cell proliferation test, Non-allergics: T cell lines from non-allergics (n=8)
Procedure, shortened: (§1)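 Freshly isolated PBMC (5×10^6/ml) from mite-allergic patients or non-allergics cultured 5 days with test protein up to 10 ug/ml; IFN-gamma, IL-9, IL-10, IL-17, IL-31 in supernatants by multiplex immunoassay. T cell lines, raised 3 weeks on HDM extract, tested at 0.5 or 2 ug/ml protein in 72 h proliferation assay.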

[3] = system: PBMC cells obtained from mite allergic patients and non-allergics; assay: Ex vivo stimulation of PBMC: cytokine production (IFN-gamma, IL-9, IL-10, IL-17, IL-31)
Procedure, shortened: as §1

[4] = system: HDM specific T-cell lines from HDM allergic donors; assay: T cell reactivity of protein: IL-5/IFNg FluoroSPOT or 72 h T cell proliferation in HDM specific T-cell lines (Example 2); details: responding donors of tested HDM allergic donors
Excerpt: PBMCs from European HDM-allergic individuals were recruited in the Copenhagen region (defined by clinical history of allergy to house dust mite and specific IgE to group 1 and group 2 major allergens from Der p and/or Der f and with measured specific IgE (CAP) >0.7 kU/L towards Der p/f 1 or Der p/f 2. In addition, PBMCs from 10 US HDM-allergic individuals were recruited in San Diego (defined by Der p extract IgE titers greater than 0.35 kUA/L). PBMCs were isolated from whole blood by density gradient centrifugation according to manufacturers' instructions (Ficoll-Hypaque, Amersham Biosciences, Uppsala, Sweden). Der p- and Der f-specific extract IgE titers were determined using the ImmunoCAP system (Thermo Fisher, Uppsala, Sweden). In a separate series of experiments, pooled plasma from 10 European and 10 American HDM atopic individuals from the San Diego region, respectively, was utilized to run 2D immunoblots to elucidate IgE and IgG reactivity towards the proteins, which had at least one peptide with positive T cell response.
T cells reactivity was determined by establishment of HDM specific T-cell lines according to standard methods. In short, PMBCs from HDM allergic donors were cultured for 2-3 weeks in the presence of house dust mite allergen extract. The responses to proteins having SEQ ID NOs 1-44 were assessed by IL-5/IFNg FluoroSPOT (Mabtech FS-0108-10) according manufacturer protocol, (after 2 weeks) or proliferation in a standard 72 h T cell proliferation assay, as described in Henmar H et al., Clin Exp Immunol 2008; 153(3):316-23. (after 3 weeks). In addition these established T cell lines were used for further characterization and epitope mapping.

B1: A007: house dust mite protein; SEQ ID NO: 30 (Der f), 31 (Der p), 306 (Blo t) (protein)
chain: MAKFNYLPVDVQEELRNTANAIVSVGKGILAADESTGTIGKRFADINVENVEQNRQAYRQLLFYSEGIEQYISGVILFDETVYQKDDKGVPFPELLKKKGIIPGIKVDTGVVTLQGTNGESTTQGLDNLTKRCQEYYNQGCRFAKWRCVLKIGQDEPSSLAIVENANVLARYASCCQQARIVPIVEPEILPDGDHNLERCQKVTETVLAAVYKALNDHHVYLEGTLLKPNMVTPGQSCPQKASPQEVAQATVTALQRTVPAAVPGIVFLSGGQSEEEASVNLNAINQYQGKKPWALSFSYGRALQASALRAWQGKPENIGAGQKELLQRAKANVLAHKGQYVAGSIPSLASAKSNFVAQHKY
# of individuals of 14 with positive BAT test ([1]; 1 ng/ml): 0 | # of individuals of 14 with positive BAT test ([1]; 10 ng/ml): 0 | # of individuals of 14 with positive BAT test ([1]; 100 ng/ml): 0 | # of individuals of 14 with positive BAT test ([1]; 1000 ng/ml): 0 | % responders of in-vitro T cell proliferation test, Allergic [2]: 21% | % responders of in-vitro T cell proliferation test, Non-allergics [2]: 38% | % HDM allergic individuals with cytokine production in ex-vivo T cell assay IL-5 [3]: 6% | % HDM allergic individuals with cytokine production in ex-vivo T cell assay IL-9 [3]: 6% | % HDM allergic individuals with cytokine production in ex-vivo T cell assay IL-10 [3]: 44% | % HDM allergic individuals with cytokine production in ex-vivo T cell assay IL-13 [3]: 19% | % HDM allergic individuals with cytokine production in ex-vivo T cell assay IL-17 [3]: 38% | % HDM allergic individuals with cytokine production in ex-vivo T cell assay IL-31 [3]: 0% | % HDM allergic individuals with cytokine production in ex-vivo T cell assay INF-g [3]: 31% | % non-allergic individuals with cytokine production in ex-vivo T cell assay IL-5 [3]: 0% | % non-allergic individuals with cytokine production in ex-vivo T cell assay IL-9 [3]: 0% | % non-allergic individuals with cytokine production in ex-vivo T cell assay IL-10 [3]: 83% | % non-allergic individuals with cytokine production in ex-vivo T cell assay IL-13 [3]: 0% | % non-allergic individuals with cytokine production in ex-vivo T cell assay IL-17 [3]: 67% | % non-allergic individuals with cytokine production in ex-vivo T cell assay IL-31 [3]: 0% | % non-allergic individuals with cytokine production in ex-vivo T cell assay INF-g [3]: 33%

B2: A003: house dust mite protein; SEQ ID NO: 2 (Der f), 3 (Der p), 305 (Blo t) (protein)
chain: MAIDGKYQMESSEHFEEFVKEMGLDVDMTNVDLSKTSTMEICKDGDVYHIKSETAGIAHEIKFKVGEEFEDDMNGHKFKNVVTMECDNKMVQKKTSADGGKVVNVVREFTDAGCTVKSTYNTVTWTRVYKRM
# of individuals of 14 with positive BAT test ([1]; 1 ng/ml): 0 | # of individuals of 14 with positive BAT test ([1]; 10 ng/ml): 0 | # of individuals of 14 with positive BAT test ([1]; 100 ng/ml): 0 | # of individuals of 14 with positive BAT test ([1]; 1000 ng/ml): 1 | % responders of in-vitro T cell proliferation test, Allergic [2]: 3% | % responders of in-vitro T cell proliferation test, Non-allergics [2]: 0% | % HDM allergic individuals with cytokine production in ex-vivo T cell assay IL-5 [3]: 6% | % HDM allergic individuals with cytokine production in ex-vivo T cell assay IL-9 [3]: 0% | % HDM allergic individuals with cytokine production in ex-vivo T cell assay IL-10 [3]: 19% | % HDM allergic individuals with cytokine production in ex-vivo T cell assay IL-13 [3]: 13% | % HDM allergic individuals with cytokine production in ex-vivo T cell assay IL-17 [3]: 13% | % HDM allergic individuals with cytokine production in ex-vivo T cell assay IL-31 [3]: 0% | % HDM allergic individuals with cytokine production in ex-vivo T cell assay INF-g [3]: 0% | % non-allergic individuals with cytokine production in ex-vivo T cell assay IL-5 [3]: 0% | % non-allergic individuals with cytokine production in ex-vivo T cell assay IL-9 [3]: 0% | % non-allergic individuals with cytokine production in ex-vivo T cell assay IL-10 [3]: 17% | % non-allergic individuals with cytokine production in ex-vivo T cell assay IL-13 [3]: 0% | % non-allergic individuals with cytokine production in ex-vivo T cell assay IL-17 [3]: 17% | % non-allergic individuals with cytokine production in ex-vivo T cell assay IL-31 [3]: 0% | % non-allergic individuals with cytokine production in ex-vivo T cell assay INF-g [3]: 0%

B3: 24 (protein, listed as Dermatophagoides pteronyssinus)
chain: DPVQQRPTLRGVTVRVGPFVKENNGKFEGFIPDLVQAISEKVGFDYTLYLSPDGRYGNVISDGNVTGMIGEVYNKKADFAAADLTMTEARENYITFTEPFMINQLAALIRREDAEGLNTLEDLAKAQETFPKRKRIVLGTLRNGATNYFLSKSDDPLAKKIYEQIKADDQSVVKSISEGVERVDKQGGYAFIMESASAEHEIANNCKLTMLLDWRNLFPRKYAFALPKDSPYLEHFNNAIKQLNSEGKIAELRRKYWANNCAENKTKDDKN
% T cell responding donors to protein [4]: 3 of 24

B4: 4 (protein, listed as Dermatophagoides pteronyssinus)
chain: QVYCNGAAIVSAARSQIGVPYSWGGGGIHGKSRGIGEGANTVGFDCSGLAQYSVYQGTHKVLARVASGQYSDPKCHHVAYGSHQPGDLVFFGNPIHHVGIVSAHGRMINAPHTGTNVREENIWSDHIANVARCW
% T cell responding donors to protein [4]: 8 of 24

B5: 12 (protein, listed as Dermatophagoides pteronyssinus)
chain: MSISAHGGGLVNGIAGMENKFTVFTSGKPVSGLTVAFEGPTKPEINFNSTKDGSVDVGYIPKAGGQYKIHIKYEGKEIVGSPFKCNISGDESTHRKLTEKVKVGGPNISTGKVNQDNQLTIDCKEAGITGGISFAMEGPAKVEVSFRNNNDGTITVIYKPPTPGDYKLHLKFNDIHLPGSPYPIVVSA
% T cell responding donors to protein [4]: 5 of 24

B6: 16 (protein, listed as Dermatophagoides pteronyssinus)
chain: MSKPIFYYHPFSGPCRTVSTVAKILNVDMEMKKLDLLTKEHLNPEFLKVNPFHKVPTFVDSDGFVVDESRVIAMYLVESRKPDSFLYPKNDLKKRIQIDRWLHYDINLSTTISAPMFCVFRGHQVQDYQVEQGKETLKTLDGVMQSFEGKFLTGADQFTLADIAMYFSLNTMEVYPKYFKFDDYPNLKSWYHRVAEALKQYDTEGTIPKAIETMKQFIQQRAAEAEKH
% T cell responding donors to protein [4]: 3 of 24

B7: 18 (protein, listed as Dermatophagoides pteronyssinus)
chain: QSLFVDYNDYSCGSSQNETNELIQEFKIFKKNINGNENFKKINDFIEKARLFRDNAAKQMLEIDQQLLTLNVIQISQRIKLENNKIQCEKLTKFSELLSMQLLAYEVGMFEFAEEIDPNIDFDRKMKNFLDETSRLFNLAEFEKLEKKFRNATSIEKLKNYIDGELVALNDYINEFLKDIIMSEFTVQSRYYLNFSIEDQVQIDSTLMTFSALKILLNDLKDYLEHLDN
% T cell responding donors to protein [4]: 0 of 24

B8: 20 (protein, listed as Dermatophagoides pteronyssinus)
chain: NWQMVWQDEFNGGHLDQNHWEFETGGGGWGNNELEFYTANRSQNVRVENGHLVIDVRVESYGGRDFTSGRIHSKQAWAYGKFEARARLPSGHHLWPAIWMFPRDSKYGPWAASGEIDIMEYRGDVHDKIEGTIHYGGQWPNNIYTGSGPHHFNVDFSKDFHNFAVEWDTKEIRWYMDGNKYFSVNIDRNMWSGKGNNPYNKNGQPFDQPFRWILNVAVGGNFFGPGPYVTPDQARHWQKHTMEIDYVRVYQWR
% T cell responding donors to protein [4]: 6 of 24

B9: 44 (protein, listed as Dermatophagoides pteronyssinus)
chain: VVIKVENLPEQCDYTQCPKWSKDDINVHLVAHTHDDVGWLKTVEQYYYGLKNDIQRAGVQYILDTMIEELIRNKDRRFIYVEIAFFWKWWQEQNEEQRMIVKELVRTGQLEFINGGWSMPDEAATHYNSLIDQSTWGLRQLNDTFGRCGHPKVTWQIDPFGHSKEMANLYAQMGYDALFFARQDYQDRENRMSNRTLEHVWQGSDDLGEIGDIFTGMMFSGYGPIEFNWDITNGPEDAVVDNPESEEYNVPDKIRRFVEKAKYFGQFYATNHFMFPMGTDFQYTDAHTWFKNLDKLINAVNKAGKGVRAFYSTPSCYAHALYEQNRTWTTKTDDFFPYASDEHAYWTGYFTSRPAIKRMERIGNNLLQACKQLDVLADNNGRFEMNLTKMREAMGVMQHHDAVTGTEKQHVAFNYAKMLDSAMLQCRHIINESYKKLLPKSSTSEHEFCPYLNISSCPTTEMGESRIIYLYNPLGHRLINHTVRLPIKNGYYYRIQDQNNQSVPSVLVPIPEFVQKIPGRKSVATKELVFRVPVIEPLGITTMYMYVDKNEQPNSAIEIKGENPDDNDDKSKWLVLTKNLIVEFYSNGTISRISIDKLHQSISISNEFRLYHGAGGTGRHSGAYIFRPNEQKTFPVTNKIKSTFFIDRKYHIVQEVHQQFDSSFVGQIIRMDKYNDNVEFDFVVGPIPVNDQIGKEIIASYKTDLENDETFYTDANGRQMLRRRWNYRPSWKYNVQEPISGNYYPVNSRIAIRDEKQSLQMTIMTDRSQGGSLSPEQINGSIDIMIHRRLLHDDYFGVGEALNEPGVDGHGLVIRGKHLLLLNSIKQSASEHRPLAQQMFMEPIISFTSIESNKQAEKQSNQYIGLNNDLPSNVHLLTLEQWHSKRYLLRLEHFYQSNEDTELSKPVKLSLRHLFKSFEIIAVEELTLGANQPISSLKNRLHYRYNRPLEQRQQQQSSLLLDDPKIEGENFDIHLSPMQIRTFLIDIKRN
% T cell responding donors to protein [4]: 7 of 24
